To fix the notation:
T1: Recombinant Human IL-17 (human, UniProt Q16552 20-155, limits assumed)
T1 sequence (looked up): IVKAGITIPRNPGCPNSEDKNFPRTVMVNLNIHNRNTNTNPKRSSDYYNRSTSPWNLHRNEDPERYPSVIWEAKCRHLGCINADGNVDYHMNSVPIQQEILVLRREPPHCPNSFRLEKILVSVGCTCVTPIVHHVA

B1: DVD1643 (bispecific antibody, human IgG1, kappa)
heavy: not shown
light: DTQVTQSPSSLSASVGDRVTITCITSTDIDVDMNWYQQKPGKPPKLLISQGNTLRPGVPSRFSSSGSGTDFTFTISSLQPEDFATYYCLQSDNLPLTFGQGTKLEIKRTVAAPEIVLTQSPDFQSVTPKEKVTITCRASQNIGSELHWYQQKPDQSPKLLIKYASHSISGVPSRFSGSGSGTDFTLTINGLEAEDAATYYCHQSDTLPHTFGQGTKVDIKRTVAAPSVFIFPPSDEQLKSGTASVVCLLNNFYPREAKVQWKVDNALQSGNSQESVTEQDSKDSTYSLSSTLTLSKADYEKHKVYACEVTHQGLSSPVTKSFNRGEC
notes: DVD-Ig: outer AB270, inner AB275; V1/V2 vectors: wild type hIgG1, kappa
B2: DVD1639 (bispecific antibody, human IgG1, kappa)
heavy: not shown
light: DIQMTQSPSSLSASVGDRVTITCRASGNIHNYLTWYQQTPGKAPKLLIYNAKTLADGVPSRFSGSGSGTDYTFTISSLQPEDIATYYCQHFWSIPYTFGQGTKLQITRTVAAPEIVLTQSPDFQSVTPKEKVTITCRASQNIGSELHWYQQKPDQSPKLLIKYASHSISGVPSRFSGSGSGTDFTLTINGLEAEDAATYYCHQSDTLPHTFGQGTKVDIKRTVAAPSVFIFPPSDEQLKSGTASVVCLLNNFYPREAKVQWKVDNALQSGNSQESVTEQDSKDSTYSLSSTLTLSKADYEKHKVYACEVTHQGLSSPVTKSFNRGEC
notes: V1/V2 vectors: wild type hIgG1, kappa
B3: DVD1641 (bispecific antibody, human IgG1, kappa)
heavy: not shown
light: B2 light
notes: as for B2
B4: DVD1645 (bispecific antibody, human IgG1, kappa)
heavy: not shown
light: DTVVTQSPAFLSVTPGEKVTITCITSTDIDVDMNWYQQKPDQPPKLLISQGNTLRPGVPSRFSSSGSGTDFTFTISSLEAEDAATYYCLQSDNLPLTFGQGTKLEIKRTVAAPEIVLTQSPDFQSVTPKEKVTITCRASQNIGSELHWYQQKPDQSPKLLIKYASHSISGVPSRFSGSGSGTDFTLTINGLEAEDAATYYCHQSDTLPHTFGQGTKVDIKRTVAAPSVFIFPPSDEQLKSGTASVVCLLNNFYPREAKVQWKVDNALQSGNSQESVTEQDSKDSTYSLSSTLTLSKADYEKHKVYACEVTHQGLSSPVTKSFNRGEC
notes: DVD-Ig: outer AB271, inner AB275; V1/V2 vectors: wild type hIgG1, kappa

A value given as a limit tells only on which side of the number the result lay.

From patent publication US20120034160A1 (AbbVie / Abbott, published 2012) come the findings set out here.

The term Kd denotes the equilibrium constant for the complex coming apart. The term koff denotes the first-order rate constant of dissociation. A word on the kon: it is the second-order rate constant of association.

The first test addresses T1, Recombinant Human IL-17. Put plainly: cell-based or functional assay.
In the case of B1, the “C-terminal VD IL-17 Neutralization Assay EC50” value turned out to be 0.121 nM.
In the case of B2, the “C-terminal VD IL-17 Neutralization Assay EC50” value was 2.61 nM.
In the case of B3, the “C-terminal VD IL-17 Neutralization Assay EC50” value turned out to be 1.87 nM.
On the same count and under the same terms, as for B4, the figure is 0.15 nM.

In the next test the target is T2, Recombinant Human IL-1β (human, UniProt P01584 117-269). Put plainly: cell-based or functional assay.
With B1, the “N-Terminal VD IL-1β Neutralization Assay EC50” value came to 0.465 nM.
Same read-out and setting: as for B2, the figure is 0.0113 nM; as for B3, 0.0786 nM.
With B4, the “N-Terminal VD IL-1β Neutralization Assay EC50” value amounted to 0.417 nM.

A further test addresses T1, Recombinant Human IL-17. Put plainly: Biacore SPR; C-terminal VD. The method in brief: (§1)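 SPR, 25° C, HBS-EP (10 mM HEPES pH 7.4, 150 mM NaCl, 3 mM EDTA, 0.005% P20). Capture via anti-mouse IgG Fcγ chip; analyte 10−200 nM at 25 μl/min. 1:1 Langmuir global fit; KD = koff/kon.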
For orientation: SPR reads the build-up and loss of mass on a sensor chip optically.
Turning to B1, the Kd is 0.52 nM, the koff was 9.4e-05 s⁻¹ and the kon is 180000 M⁻¹ s⁻¹.
The like results for B2 were, in that order, at most 0.0028 nM, at most 1e-06 s⁻¹ and 370000 M⁻¹ s⁻¹.
For B3, in that order: 0.27 nM, 2.2e-05 s⁻¹ and 84000 M⁻¹ s⁻¹.
For B4, in that order: 0.65 nM, 8.1e-05 s⁻¹ and 120000 M⁻¹ s⁻¹.

A further test deals with T2, Recombinant Human IL-1β. Put plainly: Biacore SPR; N-terminal VD. In outline:
as §1
As for B1, the Kd came out at 0.074 nM, the koff worked out at 0.00048 s⁻¹ and the kon worked out at 6.5e+06 M⁻¹ s⁻¹.
In the case of B2, the Kd came out at 0.045 nM, the koff is 5.6e-05 s⁻¹ and the on-rate constant (kon) was determined as 1.2e+06 M⁻¹ s⁻¹.
For the molecule B3, the Kd stood at 0.018 nM, the koff was 1.9e-05 s⁻¹ and the kon was found to be 1e+06 M⁻¹ s⁻¹.
The like results for B4 were, in that order, 0.08 nM, 0.00056 s⁻¹ and 7e+06 M⁻¹ s⁻¹.
